Results published in the nanobody polyreactivity screen of Harvey et al. (2022).

Assay: yeast display, Sf9 membrane polyspecificity reagent, FACS + sequencing; frameworks hold sequencing errors
Method in brief: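 Galactose induction of a Saccharomyces cerevisiae BJ5465 synthetic nanobody display library ran 36–48 hours. The cells were then stained for 1 hour at 4 °C with 10% biotinylated, detergent-solubilized Sf9 membrane reagent, pulled down on streptavidin microbeads and FACS-sorted into low and high (top ~1%) gates on expression and reagent-binding fluorescence. Labels for polyreactivity follow the gate of origin.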

| Sequence | polyreactivity (PSR sort gate) |
| --- | --- |
| QVQRVETGGVLVQAGGSLRLSCAASGRIFINDMGWYRQAHGKEMELVAAIRSDGSTNYADSVKGRFTFSRDTAKNTVYLQMNSLKPEDTAVYYCNVDGYYLFVRGYEYWGQGTQVTVSS | low polyreactivity |
| QVQVVESGGGIVQAGGSHRLSCAAYGSIFLPYAMGWYRQAPGKDRELVAAITRGGDSTYADSVKGRFTISRDNAMYTVDLQMNSLKRDDTAVFYCAAGAGFESDYWGQGTQVTVAS | low polyreactivity |
| QVQVVESGGGLVQAGGRLRLSCAASGRIFYWYAMGWSRQAPGKERELVADINHGDTSTYYADSVKGRFTISRDKAKNTVYLQMNSLKPEDTAVYYCNVRSYVYSRWYQSTWGYYYWGQGTQVTVSS | high polyreactivity |
| QVQVVESGGGLVQAGGSLLLICAASGRTFWPNAMGWYRAAPGKERELVAAINWGGGSTYYADSVKVRFTISRDNAKNAVYLQKNSLKPEDTAVYYCAKSLVPWWYKVEYDYWGQGTQVTVSS | low polyreactivity |
| QVQVVESGGGLVQAGGSLLLSCAASGSTFEYNAMGWYRQAPGKERELVASSTNYADSVKGRFTISRDNAKNTVYLQMNSLKPEDTAVYYCARELGVNRKHDYWGQGTQVTVSS | low polyreactivity |
| QVQVVESGGGLVQAGGSLRLSCAASGFIFFTYAKGWYRPAPGKERELVADISSRGGSTYYADSVKGRFTISRDNAKNTVYLQMNSLKPEDTAVYYCARTRFWLRYRLFDYWGQGTQVTVSS | low polyreactivity |
| QVQVVESGGGLVQAGGSLRLSCAASGFIFLRYDMGWYRQAPGKERELVAAINGNGGSTYYADSVKGRFTISRDNAKNTFYLQMNSLKPEDTAVYYCNARRRTYARNYGYWGHGTQVTVSS | high polyreactivity |
| QVQVVESGGGLVQAGGSLRLSCAASGRIFSHNAMGWYRQAPGNEWELVAGISSGGGTTYADSVKGRFTLSRDNAKNTVYLQMNSLKPEDTAVYYCNKQDQPVGRSGYPYGYDYWGQGTQVTVSS | low polyreactivity |
| QVQVVESGGGLVQAGGSLRLSCAASGRTFDWYLMGWYRQAPGKERELVASIRGTGSTYYADSVKGRFTISRDNAKNTVYLQMNSLKAEDTAVYYCAARPGFLYSKYNYWGQGTQVTVSS | high polyreactivity |
| QVQVVESGGGLVQAGGSLRLSCAASGRTYRSNAMGWYRQAPGKERELVAAIRTSGGSTYYADSVKGRFTISRDNAKNTVYLQMNSLKPEDTAVYYCNAELRDLEFDYWGQGTQVTVSS | low polyreactivity |
| QVQVVESGGGLVQAGGSLRLSCAASGSICHVNAMGWYRQAPGKERELVADISKRGASTYYADSVKGRFTISRDNAKNTVYLQMNSLKPEDTAVYYCAARVVTPRRQWYTYDYWGQGTQVSVSS | high polyreactivity |
| QVQVVESGGGLVQAGGSLRLSCAASGSIFATYAMGWYRQAPGKERELVAAITSSDGSTNYADSVKGRFTISRDNAKNTVYLQMNSLKPEDTAVYYCATDAPDRTDSDSGFDAGYDYWGQGTQVTLSS | low polyreactivity |
| QVQVVESGGGLVQAGGSLRLSCAASGSISSWYALGWYRPAAGYERELVADISSGVNTYYADSVKGRFTISRDNAKNTVYLQMNSLKTEDTAVYYCNAESLTFADPFYNYTYDYWGQGTQVTVSS | low polyreactivity |
| QVQVVESGGGLVQAGGSLRLSCAASGSTFKNYAMGWYRQAPGKERELVAAIHGRGGSTYYADSVKGRFTISRDNAKNTVYLQMNSLKPEDTAVYYCAASRVHSYNPGYPRYYYWGQGTQVNVSS | high polyreactivity |
| QVQVVESGGGLVQAGGSLRLSCAAYGRTISAYAMGWYRQAPVKERELVARITRYGGPTYYADSVKGRFTISRDYAKYTDYLQMNSLKAEVTAVDYCAARKYHLRTAYVYWGQGTEVTVSS | low polyreactivity |
| QVQVVESGGGLVQAGGSLRLSCAGSGSIFRVYAMGWYRQAPGKVREWVASISRRGGSTYYADSVKGRFTISRDNAKNTVYLQMNSLKPEDTAVDYCAAEFVIGGHGYDYWGQGTQVTVSS | high polyreactivity |

| Sequence | polyreactivity (PSR sort gate) |
| --- | --- |
| QVQVVESGGGLVQAGGSLRLSCGASGSTFQGNAMGWYRPAPGKDRALDAAISRSGGSTYADSVKGRFTISRDNAKNTVYLQMNSLKPADTAVYYCAADALYWIGRMDYWGQGTQVTVSS | low polyreactivity |
| QVQVVESGGGLVQAVGSLRLSCAASGSTLSDNAMGWYRQAPGKERELFAAISESGGSTYYADSVKGRFTISRDNAKNTVYLQMNSQKPEDTAVSYCNAVYLSGPFHVSHDYWGQGTQVTVSA | low polyreactivity |
| QVQVVESGGGLVQEVGSLRLSCDASGRSFHHNVMGWYRQAPGKERELVAAISQSGCSTYYADSVKGRFTISRDNAKNTLYLLINSLKPEDSAVYYCNAGAAGRRYNYWGQGTQVTVSS | low polyreactivity |
| QVQVVESGGGLVQPGGSLRLSCAASGFIFFRYDMGWYRQAPGKERELVAAITDDGSTYADSVKGRFTISRDNAKNNVYLQMNSLKPEDTAVYYCNVQSKSSYWWYGYDYWGQGTQVTVSS | low polyreactivity |
| QVRHVESGGGLVQAGGSLRLSCAASGGIFTTYAVGWYREAPGKEWELVARINSRGGRTYYADSVKGRFTISRDNAKYTVYLQMISLKPEDTGVYYCAVRNPRYFNEYDYWGQGTQVTVSS | low polyreactivity |
| QVRLIESGGGLVQAGGSLRLSCAASGFTFFGNAMGWYRQAPGKERELVASISGSGTRTYYADSVKGRFTISRDNAKNTVYLQMNSLKPEDTAVYYCAARGSYSHGINYYWGQGTQVTVSS | high polyreactivity |
| QVRLVESGGCLVQAGGSLRLSCAASGSTFRRYAMGWYRQAPGKERELVAAITVGGGSTYYADSVKGRFTISRDNAKNTVYLQMNSLKPEDTAVYDCSVSRYPYFRYDYWGQGTQVTVSS | high polyreactivity |
| QVRLVESGGGLVQAGGSLRLSCAASGFIFRNNAMGWYRQAPGKERELVAVISFSGGSTYYADSVKGRFTISRDNAKNTVSLQMNSLKPEDTAVYYCTAKGWYYTRRSDYWGQGTQVTVSS | low polyreactivity |
| QVRLVESGGGLVQAGGSLRLSCAASGRIFVGYGLGWYRQAHGKERELVAAITSSGGSTYYADSVKGRFTISRDNAKNTVYLQMNSLKPEDTAVYYCAAERGYHGGVSGLYDYWGQGTQVTVSS | low polyreactivity |
| QVRLVESGGGLVQAGGSLRLSCAASGRILQVYAMGWYRQAPGKERELVAGIRSSGGRTYYADSVKGRFTISRDNAKNTVSLQMNSLKPEDTAVYYCAADQDWYGFVIGFDYWGQGTQVTVSS | low polyreactivity |
| QVRLVESGGGLVQAGGSLRLSCAASGSIFSPYAMGWYRQAPGKERELVAALSYGVGNTYYADSVKGRFTISRDNAKNTVYLQMNSLKPEDTAVYYCAAEEYDYVYPHYFTKGYYWGQGTQVTVSS | high polyreactivity |
| QVRLVESGGGLVQAGGSLRLSCAAYGSTFKTYAMGWYRPAPGKERELVAAISAGGGSTYYADSVKGRFTISRDNAKNTVYLQMNSLKPEDTAVYYCAAAYIYAGWDYEYWGQGTQVTVSS | low polyreactivity |
| QVRLVESGGGLVQAGGSLRLSCADSGSTLDINAMGWYTQAPGKERELVASISWTGGHTYYADSVKGRFTISRDNAKNTVYLQMNSLKPEDTAVYYCAATHQETVYYFLSIFDDWGQGTQVTLSS | low polyreactivity |
| QVRLVESGGGLVQEGGSLRLSCAASGSTFGDYPMGWYRQAPGKERELVAAITLTGGSTYYADSVKGRFTISRDNAKNTVYLQMNSLKPEDTAVYYCNTDVIRWVGGTWHRYYYWGQGTQVTVSS | low polyreactivity |
| QYQLVESGRGLVQAGGSLRLSCAASGSTFRSYAMGWYRQAPGKERDLVAAITSSGGRTYYADSVKGRFTISRDNAKNTVYLQMNSLKPEDTAVYYCAARTYSWGDWGQGTQVTVSS | high polyreactivity |
| RVQHVESGGGLVQAGGSLRLSCAASGYTFEAYAMGWYRPAPGKERELVAAINYSGGSTYADSVKGRFTISRDNAKNNVYLQMHSLKPEDTAVYYCATRLYGYWTYGFDYWGQGTQVTVSS | low polyreactivity |
